# Test results published in PMC12015215, “Structural basis of human Mediator recruitment by the phosphorylated transcription factor Elk-1” (Nature Communications, 2025).
# Where two headings read alike, the source gives them in different places.
# T1: BAP-MED23-6His, biotinylated (human, UniProt Q9ULK4-1 1-1368, biotin on the BAP tag (biotinylated during expression))
# T1 construct: Mediator complex subunit MED23, human, isoform 1 (NM_004830.3); Captured by its biotin on a streptavidin SA chip; also called biotinylated MED23; MED23 with a BAP tag; source: insect cells (pFastBac Dual with BirA biotin ligase), purified by the same procedure as MED23-6His; not shown: BAP (biotin acceptor peptide), N-terminal, kept
# T1 sequence: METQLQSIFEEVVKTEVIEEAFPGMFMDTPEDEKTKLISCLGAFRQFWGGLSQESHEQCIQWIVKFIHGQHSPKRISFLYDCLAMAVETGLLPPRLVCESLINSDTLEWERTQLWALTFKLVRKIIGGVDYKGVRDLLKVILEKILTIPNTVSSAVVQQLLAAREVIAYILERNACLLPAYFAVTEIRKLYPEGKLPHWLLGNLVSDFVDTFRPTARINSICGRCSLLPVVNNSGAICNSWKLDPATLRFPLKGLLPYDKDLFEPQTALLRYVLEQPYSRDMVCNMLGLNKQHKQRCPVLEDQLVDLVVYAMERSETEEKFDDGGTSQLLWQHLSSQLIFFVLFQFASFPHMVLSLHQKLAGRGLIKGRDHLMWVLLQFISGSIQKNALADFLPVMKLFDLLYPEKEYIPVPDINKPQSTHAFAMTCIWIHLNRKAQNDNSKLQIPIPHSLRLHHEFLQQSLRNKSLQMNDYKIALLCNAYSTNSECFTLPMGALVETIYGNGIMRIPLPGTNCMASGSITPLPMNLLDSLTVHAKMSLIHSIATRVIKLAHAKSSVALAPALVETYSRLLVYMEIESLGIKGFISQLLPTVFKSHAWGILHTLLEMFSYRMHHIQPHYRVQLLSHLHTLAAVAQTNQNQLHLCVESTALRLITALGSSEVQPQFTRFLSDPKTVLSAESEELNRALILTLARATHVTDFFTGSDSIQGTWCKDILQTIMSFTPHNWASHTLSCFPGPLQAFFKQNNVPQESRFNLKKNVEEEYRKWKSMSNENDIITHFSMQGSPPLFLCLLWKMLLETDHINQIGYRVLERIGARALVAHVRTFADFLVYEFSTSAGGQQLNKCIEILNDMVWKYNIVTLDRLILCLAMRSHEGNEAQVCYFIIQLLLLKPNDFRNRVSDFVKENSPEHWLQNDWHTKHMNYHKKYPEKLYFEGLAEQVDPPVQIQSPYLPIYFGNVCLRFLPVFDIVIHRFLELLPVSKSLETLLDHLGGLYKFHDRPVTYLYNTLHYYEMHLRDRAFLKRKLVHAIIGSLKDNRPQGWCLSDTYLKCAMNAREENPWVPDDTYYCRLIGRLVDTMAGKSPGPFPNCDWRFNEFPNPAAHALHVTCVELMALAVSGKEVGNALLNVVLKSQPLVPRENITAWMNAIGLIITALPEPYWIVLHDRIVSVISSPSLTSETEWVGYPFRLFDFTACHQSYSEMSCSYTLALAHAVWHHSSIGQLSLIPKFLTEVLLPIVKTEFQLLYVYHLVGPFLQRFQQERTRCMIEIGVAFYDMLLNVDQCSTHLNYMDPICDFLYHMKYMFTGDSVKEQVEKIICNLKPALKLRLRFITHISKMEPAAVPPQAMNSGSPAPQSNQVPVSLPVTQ
# T2: MED23-6His (human Mediator complex subunit MED23, wild type) (human, UniProt Q9ULK4-1 1-1368)
# T2 construct: Mediator complex subunit MED23, human, isoform 1 (NM_004830.3); cloned before a rhinovirus 3C protease site followed by a 6xHis tag; The stored protein is named MED23-6His; cleavage by 3C protease is not reported; In the functional rows MED23 WT was expressed from PIN510A-1 or FC550A-1 plasmids in MED23-/- MEFs; also called MED23 WT; recombinant MED23; source: ExpiSF9 insect cells (baculovirus), …
# T2 sequence: T1 sequence
# B1: phosphorylated GST-Elk-1^8P (308–428)-6His (domain or fragment, UniProt P19419 308-428, looked up)
# chain: SQPQKGRKPRDLELPLSPSLLGGPGPERTPGSGSGSGLQAPGPALTPSLLPTHTLTPVLLTPSSLPPSIHFWSTLSPIAPRSPAKLSFQFPSSGSAQVHIPSISVDGLSTPVVLSPGPQKP
# modifications: phosphorylated in E. coli by co-expressed ERK2-GOF/MEK1DD; which of the eight S/T-P sites carry phosphate is not stated
# notes: In pGEX-6P1; also called Elk-1 TAD; Gal4-Elk-1^8P (308–428) in the reporter assays; source: E. coli BL21 (DE3), co-expressed with MBP-ERK2-GOF/MEK1DD, purified (GSTrap 4B and/or HisTap HP); not shown: GST, N-terminal, kept
# B2: GST-fused Elk-1^3P (308–401)-6His, phosphorylated at T368, S383 and S389 (domain or fragment, UniProt P19419 308-401, looked up)
# chain: SQPQKGRKPRDLELPLSPSLLGGPGPERAPGSGSGSGLQAPGPALAPSLLPTHTLAPVLLTPSSLPPSIHFWSTLSPIAPRSPAKLSFQFPSSG
# modifications: phosphorylated at T368, S383 and S389 by co-expressed ERK kinase
# notes: In pGEX-4T1 (synthesised by Genscript); also called triply phosphorylated Elk-1; source: E. coli BL21 (DE3), co-expressed with MBP-ERK2-GOF/MEK1DD, purified (GSTrap 4B and/or HisTap HP)
# How the values were obtained:
# [1] = target: T1, BAP-MED23-6His, biotinylated; experiment: SPR; BIAcore T200; biotinylated BAP-MED23 captured on a streptavidin SA chip (2000-3000 RU), PBS+ buffer; GST-fused Elk-1 derivatives injected at 0.25-4 µM, single-cycle kinetics in triplicate, 1:1 Langmuir model
# [2] = target: T2, MED23-6His (human Mediator complex …); experiment: pull-down; 4 µg GST constructs immobilised on GST-Trap agarose; 20 µg recombinant MED23 or MED23 G382F, 90 min at 4 °C in PBS-casein; SDS-PAGE, Coomassie; conditions: both partners purified
Molecule,Kd [1],further results
"GST-fused Elk-1^1P (S383P) (308–401)-6His, phosphorylated only at S383 (from UniProt P19419 308-401) (domain or fragment)",81 nM,
"GST-fused Elk-1^2P (T368P/S389P) (308–401)-6His, phosphorylated at T368 and S389 (from UniProt P19419 308-401) (domain or fragment)",75 nM,
"GST-fused Elk-1^2P (T368P/S383P) (308–401)-6His, phosphorylated at T368 and S383 (from UniProt P19419 308-401) (domain or fragment)",42 nM,
B1,,binding result [2]: binds
B2,,Kd ([1]; both partners purified): 60 nM
